Assay [1] addresses T1, human calcitonin receptor (human, UniProt P30988 25-474).
T1 construct: whole, on cells; also called hCTR; hCT
T1 sequence (looked up): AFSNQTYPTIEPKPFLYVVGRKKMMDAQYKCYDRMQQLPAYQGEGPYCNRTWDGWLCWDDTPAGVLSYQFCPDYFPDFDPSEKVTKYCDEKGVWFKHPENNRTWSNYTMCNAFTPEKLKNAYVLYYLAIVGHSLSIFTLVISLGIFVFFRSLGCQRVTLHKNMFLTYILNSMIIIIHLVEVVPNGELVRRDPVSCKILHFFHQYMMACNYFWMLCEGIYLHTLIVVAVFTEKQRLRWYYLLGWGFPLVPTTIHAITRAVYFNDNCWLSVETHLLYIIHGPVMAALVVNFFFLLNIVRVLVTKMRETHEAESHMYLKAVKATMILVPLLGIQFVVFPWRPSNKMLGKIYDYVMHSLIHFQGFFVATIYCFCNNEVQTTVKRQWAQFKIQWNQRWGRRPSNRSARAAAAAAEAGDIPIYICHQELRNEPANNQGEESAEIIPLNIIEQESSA
The assay can be described thus: SPA radioligand competition (125I-calcitonin), membranes of BHK cells with human calcitonin receptor. An outline of the steps: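 BHK hCTR membranes 35 ng/μL + SPA beads 0.05 mg/well; buffer 50 mM Hepes pH 7.4, 1 mM CaCl2, 5 mM MgCl₂, 0.1% OA, 0.02% Tween20. 120 min, 25° C., shaking. Scintillation count; IC50 by one-site binding competition.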
For orientation: In a radioligand displacement assay an active substance lowers the binding of a labelled ligand.

The target in assay [2] is T1, human calcitonin receptor. The assay can be described thus: ratio of IC50 at human calcitonin receptor to IC50 at human amylin receptor (SPA competition assays). The method, boiled down:
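Scintillation proximity competition binding on cell membranes at 35 ng/μL with SPA beads, in 50 mM Hepes pH 7.4, 1 mM CaCl2, 5 mM MgCl₂, 0.1% OA, 0.02% Tween20. Incubated 120 min at 25° C with shaking. IC₅₀ from one-site competition fit.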

The record followed here is patent US20140087995A1 (published 2014).

Numbered stars: 1 amine (or outer) side, 2 acyl side, 3 side chain; on linkers, the order of the positions; unused ones are H or OH. Bridge positions count the residues as written; N and C are the ends. Side chains are listed from the residue outwards. Ends that are not written are not given here. * marks the point of attachment. C20 diacid = O=C(O)CCCCCCCCCCCCCCCCCCC(=O)*; γGlu = O=C(O)[C@H](CCC(=O)[*:2])N[*:1]; AEEA = NCCOCCOCC(=O)O

B1: N^ε1-[2-[2-[2-[[(4S)-4-carboxy-4-(19-carboxynonadecanoylamino)butanoyl]amino]ethoxy]ethoxy]acetyl]-[Lys14,Arg17,Pro21,Pro27,Pro31]-h-amylin (peptide)
peptide: K([AEEA-γGlu-C20 diacid])CNTATCATQRLAKFLRHSSPNFGAIPSSTPVGSNTY-NH2
modifications: disulfide 2-7; N-terminus assumed
SMILES: CC[C@H](C)[C@H](NC(=O)[C@H](C)NC(=O)CNC(=O)[C@H](Cc1ccccc1)NC(=O)[C@H](CC(N)=O)NC(=O)[C@@H]1CCCN1C(=O)[C@H](CO)NC(=O)[C@H](CO)NC(=O)[C@H](Cc1c[nH]cn1)NC(=O)[C@H](CCCNC(=N)N)NC(=O)[C@H](CC(C)C)NC(=O)[C@H](Cc1ccccc1)NC(=O)[C@H](CCCCN)NC(=O)[C@H](C)NC(=O)[C@H](CC(C)C)NC(=O)[C@H](CCCNC(=N)N)NC(=O)[C@H](CCC(N)=O)NC(=O)[C@@H](NC(=O)[C@H](C)NC(=O)[C@@H]1CSSC[C@H](NC(=O)[C@@H](N)CCCCNC(=O)COCCOCCNC(=O)CC[C@H](NC(=O)CCCCCCCCCCCCCCCCCCC(=O)O)C(=O)O)C(=O)N[C@@H](CC(N)=O)C(=O)N[C@@H]([C@@H](C)O)C(=O)N[C@@H](C)C(=O)N[C@@H]([C@@H](C)O)C(=O)N1)[C@@H](C)O)C(=O)N1CCC[C@H]1C(=O)N[C@@H](CO)C(=O)N[C@@H](CO)C(=O)N[C@H](C(=O)N1CCC[C@H]1C(=O)N[C@H](C(=O)NCC(=O)N[C@@H](CO)C(=O)N[C@@H](CC(N)=O)C(=O)N[C@H](C(=O)N[C@@H](Cc1ccc(O)cc1)C(N)=O)[C@@H](C)O)C(C)C)[C@@H](C)O
notes: also called compound 74
The IC50 is the midpoint of a concentration-inhibition curve. For B1, in assay [1], the IC50 turned out to be 79.9 nM. In addition, the “Ratio hCT/hAmylin binding” value in assay [2] stood at 101.

B2: N^ε1-[(4S)-4-carboxy-4-(19-carboxynonadecanoylamino)butanoyl]-[Arg14,Arg17,Pro21,Pro27]-h-amylin (peptide)
peptide: K([γGlu-C20 diacid])CNTATCATQRLARFLRHSSPNFGAIPSSTNVGSNTY-NH2
modifications: disulfide 2-7; N-terminus assumed
SMILES: CC[C@H](C)[C@H](NC(=O)[C@H](C)NC(=O)CNC(=O)[C@H](Cc1ccccc1)NC(=O)[C@H](CC(N)=O)NC(=O)[C@@H]1CCCN1C(=O)[C@H](CO)NC(=O)[C@H](CO)NC(=O)[C@H](Cc1c[nH]cn1)NC(=O)[C@H](CCCNC(=N)N)NC(=O)[C@H](CC(C)C)NC(=O)[C@H](Cc1ccccc1)NC(=O)[C@H](CCCNC(=N)N)NC(=O)[C@H](C)NC(=O)[C@H](CC(C)C)NC(=O)[C@H](CCCNC(=N)N)NC(=O)[C@H](CCC(N)=O)NC(=O)[C@@H](NC(=O)[C@H](C)NC(=O)[C@@H]1CSSC[C@H](NC(=O)[C@@H](N)CCCCNC(=O)CC[C@H](NC(=O)CCCCCCCCCCCCCCCCCCC(=O)O)C(=O)O)C(=O)N[C@@H](CC(N)=O)C(=O)N[C@@H]([C@@H](C)O)C(=O)N[C@@H](C)C(=O)N[C@@H]([C@@H](C)O)C(=O)N1)[C@@H](C)O)C(=O)N1CCC[C@H]1C(=O)N[C@@H](CO)C(=O)N[C@@H](CO)C(=O)N[C@H](C(=O)N[C@@H](CC(N)=O)C(=O)N[C@H](C(=O)NCC(=O)N[C@@H](CO)C(=O)N[C@@H](CC(N)=O)C(=O)N[C@H](C(=O)N[C@@H](Cc1ccc(O)cc1)C(N)=O)[C@@H](C)O)C(C)C)[C@@H](C)O
notes: also called compound 83
As for B2, the IC50 in assay [1] came out at 137 nM. Besides, the “Ratio hCT/hAmylin binding” value in assay [2] came to 146.

B3: N^ε1-[2-[2-[2-[[(4S)-4-carboxy-4-(19-carboxynonadecanoylamino)butanoyl]amino]ethoxy]ethoxy]acetyl]-[Thr14,Arg17,Pro21,Pro27,Pro31]-h-amylin (peptide)
peptide: K([AEEA-γGlu-C20 diacid])CNTATCATQRLATFLRHSSPNFGAIPSSTPVGSNTY-NH2
modifications: disulfide 2-7; N-terminus assumed
SMILES: CC[C@H](C)[C@H](NC(=O)[C@H](C)NC(=O)CNC(=O)[C@H](Cc1ccccc1)NC(=O)[C@H](CC(N)=O)NC(=O)[C@@H]1CCCN1C(=O)[C@H](CO)NC(=O)[C@H](CO)NC(=O)[C@H](Cc1c[nH]cn1)NC(=O)[C@H](CCCNC(=N)N)NC(=O)[C@H](CC(C)C)NC(=O)[C@H](Cc1ccccc1)NC(=O)[C@@H](NC(=O)[C@H](C)NC(=O)[C@H](CC(C)C)NC(=O)[C@H](CCCNC(=N)N)NC(=O)[C@H](CCC(N)=O)NC(=O)[C@@H](NC(=O)[C@H](C)NC(=O)[C@@H]1CSSC[C@H](NC(=O)[C@@H](N)CCCCNC(=O)COCCOCCNC(=O)CC[C@H](NC(=O)CCCCCCCCCCCCCCCCCCC(=O)O)C(=O)O)C(=O)N[C@@H](CC(N)=O)C(=O)N[C@@H]([C@@H](C)O)C(=O)N[C@@H](C)C(=O)N[C@@H]([C@@H](C)O)C(=O)N1)[C@@H](C)O)[C@@H](C)O)C(=O)N1CCC[C@H]1C(=O)N[C@@H](CO)C(=O)N[C@@H](CO)C(=O)N[C@H](C(=O)N1CCC[C@H]1C(=O)N[C@H](C(=O)NCC(=O)N[C@@H](CO)C(=O)N[C@@H](CC(N)=O)C(=O)N[C@H](C(=O)N[C@@H](Cc1ccc(O)cc1)C(N)=O)[C@@H](C)O)C(C)C)[C@@H](C)O
notes: also called compound 75
Consider B3, for which, in assay [1], the IC50 was determined as 60.9 nM. In assay [2], the “Ratio hCT/hAmylin binding” value was determined as 91.4.

B4: N^ε1-[(4S)-4-carboxy-4-(19-carboxynonadecanoylamino)butanoyl]-[Ala14,Arg17,Pro21,Pro27,His34]-h-amylin (peptide)
peptide: K([γGlu-C20 diacid])CNTATCATQRLAAFLRHSSPNFGAIPSSTNVGHNTY-NH2
modifications: disulfide 2-7; N-terminus assumed
SMILES: CC[C@H](C)[C@H](NC(=O)[C@H](C)NC(=O)CNC(=O)[C@H](Cc1ccccc1)NC(=O)[C@H](CC(N)=O)NC(=O)[C@@H]1CCCN1C(=O)[C@H](CO)NC(=O)[C@H](CO)NC(=O)[C@H](Cc1c[nH]cn1)NC(=O)[C@H](CCCNC(=N)N)NC(=O)[C@H](CC(C)C)NC(=O)[C@H](Cc1ccccc1)NC(=O)[C@H](C)NC(=O)[C@H](C)NC(=O)[C@H](CC(C)C)NC(=O)[C@H](CCCNC(=N)N)NC(=O)[C@H](CCC(N)=O)NC(=O)[C@@H](NC(=O)[C@H](C)NC(=O)[C@@H]1CSSC[C@H](NC(=O)[C@@H](N)CCCCNC(=O)CC[C@H](NC(=O)CCCCCCCCCCCCCCCCCCC(=O)O)C(=O)O)C(=O)N[C@@H](CC(N)=O)C(=O)N[C@@H]([C@@H](C)O)C(=O)N[C@@H](C)C(=O)N[C@@H]([C@@H](C)O)C(=O)N1)[C@@H](C)O)C(=O)N1CCC[C@H]1C(=O)N[C@@H](CO)C(=O)N[C@@H](CO)C(=O)N[C@H](C(=O)N[C@@H](CC(N)=O)C(=O)N[C@H](C(=O)NCC(=O)N[C@@H](Cc1c[nH]cn1)C(=O)N[C@@H](CC(N)=O)C(=O)N[C@H](C(=O)N[C@@H](Cc1ccc(O)cc1)C(N)=O)[C@@H](C)O)C(C)C)[C@@H](C)O
notes: also called compound 93
For B4, the IC50 in assay [1] was 17.8 nM. Besides, in assay [2], the “Ratio hCT/hAmylin binding” value was 101.

B5: N^ε1-[2-[2-[2-[[(4S)-4-carboxy-4-(19-carboxynonadecanoylamino)butanoyl]amino]ethoxy]ethoxy]acetyl]-[Ser14,Arg17,Pro21,Pro27,Pro31]-h-amylin (peptide)
peptide: K([AEEA-γGlu-C20 diacid])CNTATCATQRLASFLRHSSPNFGAIPSSTPVGSNTY-NH2
modifications: disulfide 2-7; N-terminus assumed
SMILES: CC[C@H](C)[C@H](NC(=O)[C@H](C)NC(=O)CNC(=O)[C@H](Cc1ccccc1)NC(=O)[C@H](CC(N)=O)NC(=O)[C@@H]1CCCN1C(=O)[C@H](CO)NC(=O)[C@H](CO)NC(=O)[C@H](Cc1c[nH]cn1)NC(=O)[C@H](CCCNC(=N)N)NC(=O)[C@H](CC(C)C)NC(=O)[C@H](Cc1ccccc1)NC(=O)[C@H](CO)NC(=O)[C@H](C)NC(=O)[C@H](CC(C)C)NC(=O)[C@H](CCCNC(=N)N)NC(=O)[C@H](CCC(N)=O)NC(=O)[C@@H](NC(=O)[C@H](C)NC(=O)[C@@H]1CSSC[C@H](NC(=O)[C@@H](N)CCCCNC(=O)COCCOCCNC(=O)CC[C@H](NC(=O)CCCCCCCCCCCCCCCCCCC(=O)O)C(=O)O)C(=O)N[C@@H](CC(N)=O)C(=O)N[C@@H]([C@@H](C)O)C(=O)N[C@@H](C)C(=O)N[C@@H]([C@@H](C)O)C(=O)N1)[C@@H](C)O)C(=O)N1CCC[C@H]1C(=O)N[C@@H](CO)C(=O)N[C@@H](CO)C(=O)N[C@H](C(=O)N1CCC[C@H]1C(=O)N[C@H](C(=O)NCC(=O)N[C@@H](CO)C(=O)N[C@@H](CC(N)=O)C(=O)N[C@H](C(=O)N[C@@H](Cc1ccc(O)cc1)C(N)=O)[C@@H](C)O)C(C)C)[C@@H](C)O
notes: also called compound 73
Turning to B5, the IC50 in assay [1] amounted to 5.38 nM. Further, the “Ratio hCT/hAmylin binding” value in assay [2] was 51.7.

B6: N^ε1-[(4S)-4-carboxy-4-(19-carboxynonadecanoylamino)butanoyl]-[Ala14,Arg17,Pro21,Pro27,Pro34]-h-amylin (peptide)
peptide: K([γGlu-C20 diacid])CNTATCATQRLAAFLRHSSPNFGAIPSSTNVGPNTY-NH2
modifications: disulfide 2-7; N-terminus assumed
SMILES: CC[C@H](C)[C@H](NC(=O)[C@H](C)NC(=O)CNC(=O)[C@H](Cc1ccccc1)NC(=O)[C@H](CC(N)=O)NC(=O)[C@@H]1CCCN1C(=O)[C@H](CO)NC(=O)[C@H](CO)NC(=O)[C@H](Cc1c[nH]cn1)NC(=O)[C@H](CCCNC(=N)N)NC(=O)[C@H](CC(C)C)NC(=O)[C@H](Cc1ccccc1)NC(=O)[C@H](C)NC(=O)[C@H](C)NC(=O)[C@H](CC(C)C)NC(=O)[C@H](CCCNC(=N)N)NC(=O)[C@H](CCC(N)=O)NC(=O)[C@@H](NC(=O)[C@H](C)NC(=O)[C@@H]1CSSC[C@H](NC(=O)[C@@H](N)CCCCNC(=O)CC[C@H](NC(=O)CCCCCCCCCCCCCCCCCCC(=O)O)C(=O)O)C(=O)N[C@@H](CC(N)=O)C(=O)N[C@@H]([C@@H](C)O)C(=O)N[C@@H](C)C(=O)N[C@@H]([C@@H](C)O)C(=O)N1)[C@@H](C)O)C(=O)N1CCC[C@H]1C(=O)N[C@@H](CO)C(=O)N[C@@H](CO)C(=O)N[C@H](C(=O)N[C@@H](CC(N)=O)C(=O)N[C@H](C(=O)NCC(=O)N1CCC[C@H]1C(=O)N[C@@H](CC(N)=O)C(=O)N[C@H](C(=O)N[C@@H](Cc1ccc(O)cc1)C(N)=O)[C@@H](C)O)C(C)C)[C@@H](C)O
notes: also called compound 94
As to B6, in assay [1], the IC50 came out at 6.86 nM. Moreover, the “Ratio hCT/hAmylin binding” value in assay [2] came out at 46.3.
